B1: RGM-like protein: rat protein homologous to chicken repulsive guidance molecule, released from RGM-CHO cells by PI-PLC; SEQ ID NO: 4 (protein, listed as Rattus norvegicus)
chain: MGRGAGRSALGLWPTLAFLLCSFPAAISPCKILKCNSEFWSATSSGSHAPASDDVPEFCAALRTYALCTRRTARTCRGDLAYHSAVHGIEDLMSQHNCSKDGPTSQPRVRTLPPAGDSQERSDSPEICHYEKSFHKHSAAPNYTHCGLFGDPHLRTFTDHFQTCKVQGAWPLIDNNYLNVQVTNTPVLPGSAATATSKLTIIFKNFQECVDQKVYQAEMDELPSAFADGSKNGGDKHGANSLKITEKVSGQHVEIQAKYIGTTIVVRQVGRYLTFAVRMPEEVVNAVEDRDSQGLYLCLRGCPLNQQIDFQAFRANAESPRRPAAASPSPVVPETFPYETAVAKCKEKLPVEDLYYQACVFDLLTTGDVNFTLAAYYALEDGKMLHSNKDKLHLFERTRELPGAVAAAAFPLAPEMLPGTVTLLVLLPLFW

Experiments:
[1] = system: cerebellar granule neurons on rat RGM-like protein-expressing CHO cells; experiment: Axon growth assay, coculture of cerebellar granule neurons on RGM-CHO cells; type: cell-based; settings: 10 μM Y27632 added, 24 hours, compared with control CHO cells
Method: Cerebellar granule cells from rat pups at 8 days post-natal (P8) were dissociated by trypsinization (0.25% trypsin in PBS, 37° C., 15 minutes); resuspended in serum-containing medium; triturated; and washed three times with PBS. For the coculture assay, neurons were plated onto a confluent monolayer of RGM-CHO cells or control CHO cells in chamber slides. 10 μM Y27632 (Welfide Corporation, Osaka) was added to the cultures to inhibit ROCK (Rho kinase). The cultures were grown for 24 hours in serum-free DMEM/F12 medium.
(§1) For the soluble RGM assay, confluent monolayers of RGM-CHO cells or control CHO cells were incubated in serum-free DMEM/F12 with or without 2.5 U/mL PI-PLC (phosphatidylinositol-specific phospholipase C, Sigma). After the culture were centrifuged for 10 minutes at 13000 g, floating cells were removed by collecting the supernatant. A portion of the supernatant was subjected to Western blot analysis. Neurons were plated on the conditioned media on poly-L-lysine-coated chamber slides and were incubated for 12 or 24 hours. For the axon assay, the cells were fixed with 4% (w/v) paraformaldehyde and immunostained with a monoclonal antibody that recognizes β-tubulin III protein specifically present in neurons (TuJ1, 1:1000, Covance Research Products, Inc., Denver, USA). The length of the longest neurite for each β-tubulin III-positive neuron was then measured.

[2] = system: cerebellar granule neurons; experiment: Soluble RGM axon growth assay with conditioned media; type: cell-based, rat; settings: medium obtained by PI-PLC treatment of RGM-like protein-expressing CHO cells; versus control CHO medium
Method: as §1

[3] = system: RhoA; experiment: Affinity precipitation of GTP-RhoA; type: cell-based, rat; settings: cerebellar neurons from 7-day postnatal rats; 30 minutes after conditioned medium
Method: Cells were lysed in 50 mM Tris (pH 7.5) containing 1% Triton X-100 (TM), 0.5% sodium deoxycholate, 0.1% SDS, 500 mM NaCl, 10 mM MgCl2, 10 μg/mL leupeptin, and 10 μg/mL aprotinin.
The cell lysate was cleared by centrifugation at 4° C. for 10 minutes×13000 g, and the supernatant was incubated for 45 minutes at 4° C. with 20 μg GST-Rho binding domain of Rhotekin beads (TM, Upstate Biotech). The beads were washed four times with washing buffer (50 mM Tris (pH 7.5) containing 1% Triton X-100 (TM), 150 mM NaCl, 10 mM MgCl2, and 10 μg/mL each of leupeptin and aprotinin). Bound Rho was detected by Western blotting using monoclonal antibody against RhoA (Santa Cruz Biotech, Santa Cruz, Calif., USA).
The RhoA activity in neurons was measured. Conditioned medium was added to cerebellar neurons from 7-day postnatal rats and the RhoA activity was measured after 30 minutes had elapsed (FIG. 6).

| Molecule | axon growth (average length of the longest axon of each neuron) [1] | axon growth of neurons treated with conditioned medium [2] | RhoA activity in neurons (GTP-RhoA) [3] |
| --- | --- | --- | --- |
| CC(N)[C@H]1CC[C@H](C(=O)Nc2ccncc2)CC1 (stereo partly drawn) [Y27632] | axon growth was about the same as for the control | – | – |
| B1 | – | significantly inhibited | Rho activation was confirmed |
